According to patent US5747447A, “Stable polypeptide composition” (COR Therapeutics, priority 1995, dated 1998):

Key:
M21 melanoma cells = assay: M21 melanoma cell adhesion to vitronectin-coated plates; format: cell-based
Protocol: M21 melanoma cells were labelled with ^35 S-methionine, and then added to vitronectin-coated plates in the presence of the indicated concentrations of purified snake venom peptides. Cell attachment was measured by solubilizing the cells remaining after an incubation and wash, as previously describe.

[1] = target: ADP-induced human platelet aggregation (Homo sapiens, UniProt P05106+P08514); assay: standard aggregation inhibition assay (ADP-induced human platelet aggregation); format: cell-based
Text: 2. Standard assays directly applied to platelet aggregation, such as those described by Gann, Z.-R., et al., J Biol Chem (1988) 263:19827-19832; Huang, T. F., et al., J Biol Chem (1987) 262:16157-16163; Biochemistry (1989) 28:661-666, cited above and incorporated herein by reference;

vitronectin receptor = vitronectin receptor (Homo sapiens, UniProt P05106+P06756); assay: plate assay, inhibition of vitronectin binding to vitronectin receptor
Text: The PAI assay systems further include characterization of the PAI specificity by binding inhibition assays identical to that above but substituting other adhesive proteins for Fg and other receptors for GP IIb-IIIa. In particular, inhibition of the binding of vitronectin to the vitronectin receptor; fibronectin to the fibronectin receptor; fibronectin to GP IIb-IIIa and fibrinogen and/or vWF to GP IIb-IIIa can be assessed. The adhesive protein and receptors for these assays are available in the art.

Sequence of vitronectin receptor (P06756 31-889 limits assumed): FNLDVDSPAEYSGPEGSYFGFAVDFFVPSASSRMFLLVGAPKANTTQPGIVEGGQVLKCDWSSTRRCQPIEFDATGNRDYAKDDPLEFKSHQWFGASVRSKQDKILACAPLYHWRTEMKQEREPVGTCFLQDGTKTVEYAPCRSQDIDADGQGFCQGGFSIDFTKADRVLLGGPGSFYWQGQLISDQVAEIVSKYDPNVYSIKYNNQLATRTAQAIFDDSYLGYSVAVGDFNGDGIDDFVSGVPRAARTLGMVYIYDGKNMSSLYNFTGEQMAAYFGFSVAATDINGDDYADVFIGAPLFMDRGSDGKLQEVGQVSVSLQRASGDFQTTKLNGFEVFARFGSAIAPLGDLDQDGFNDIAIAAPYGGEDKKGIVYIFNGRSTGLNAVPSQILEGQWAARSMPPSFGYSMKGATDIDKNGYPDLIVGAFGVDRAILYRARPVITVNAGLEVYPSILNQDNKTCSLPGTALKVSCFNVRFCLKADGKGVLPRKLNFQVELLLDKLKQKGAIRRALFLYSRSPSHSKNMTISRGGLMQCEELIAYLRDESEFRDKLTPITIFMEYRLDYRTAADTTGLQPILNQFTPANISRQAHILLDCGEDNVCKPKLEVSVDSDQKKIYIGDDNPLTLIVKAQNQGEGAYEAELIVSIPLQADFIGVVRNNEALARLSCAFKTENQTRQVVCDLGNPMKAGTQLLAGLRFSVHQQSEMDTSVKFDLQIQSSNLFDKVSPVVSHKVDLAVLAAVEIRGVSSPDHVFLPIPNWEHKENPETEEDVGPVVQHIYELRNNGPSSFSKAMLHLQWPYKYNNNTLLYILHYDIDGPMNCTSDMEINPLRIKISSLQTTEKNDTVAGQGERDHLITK
Sequence of vitronectin receptor (P06756 891-1048 limits assumed): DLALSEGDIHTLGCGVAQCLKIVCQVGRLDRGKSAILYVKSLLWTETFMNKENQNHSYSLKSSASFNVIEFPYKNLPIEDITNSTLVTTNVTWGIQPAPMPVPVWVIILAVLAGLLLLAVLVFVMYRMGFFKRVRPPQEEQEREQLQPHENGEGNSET
Sequence of vitronectin receptor (P05106 27-788): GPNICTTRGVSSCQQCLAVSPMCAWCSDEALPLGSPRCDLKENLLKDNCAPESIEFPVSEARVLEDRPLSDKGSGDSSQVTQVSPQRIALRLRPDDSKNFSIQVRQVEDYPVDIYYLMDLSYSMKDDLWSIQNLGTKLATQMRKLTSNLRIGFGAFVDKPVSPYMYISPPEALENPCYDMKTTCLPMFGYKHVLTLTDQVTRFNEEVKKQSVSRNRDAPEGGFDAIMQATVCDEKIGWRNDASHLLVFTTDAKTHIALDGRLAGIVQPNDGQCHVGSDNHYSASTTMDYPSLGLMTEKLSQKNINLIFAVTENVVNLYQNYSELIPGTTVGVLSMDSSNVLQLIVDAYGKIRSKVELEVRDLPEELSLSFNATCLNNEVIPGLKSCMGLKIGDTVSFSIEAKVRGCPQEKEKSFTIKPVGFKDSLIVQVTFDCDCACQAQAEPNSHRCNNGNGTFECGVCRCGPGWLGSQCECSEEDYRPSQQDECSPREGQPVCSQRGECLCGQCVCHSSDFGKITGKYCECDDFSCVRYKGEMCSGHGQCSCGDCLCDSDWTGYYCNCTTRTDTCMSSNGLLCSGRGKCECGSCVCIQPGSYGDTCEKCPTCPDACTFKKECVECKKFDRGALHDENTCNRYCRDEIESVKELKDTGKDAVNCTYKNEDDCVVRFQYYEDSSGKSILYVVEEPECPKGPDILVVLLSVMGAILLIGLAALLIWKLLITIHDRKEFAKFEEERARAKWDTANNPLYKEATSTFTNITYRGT

Molecule | M21 cell attachment to vitronectin (in words) (M21 melanoma cells) | platelet aggregation inhibition activity (in words) [1] | inhibition of vitronectin binding to the vitronectin receptor (in words) (vitronectin receptor)
barbourin (protein) peptide: EAGEECDCGSPENPCCDAATCKLRPGAQCADGLCCDQCRFMKKGTVCRVAKGDWNDDTCTGQSADCPRNGLYG | Neither barbourin nor Peptide 1 (truncated barbourin) had a significant effect | potent inhibitors of platelet aggregation | –
cotiarin (protein) peptide: EAGEECDCGAPENPCCDAATCKLRPGAQCAEGLCCDQCRFKGAGKICRRARGDNPDDRCTGQSADCPRNRFH | very potent in inhibiting cell attachment to vitronectin | – | potent inhibitor
